# Laboratory results from patent US8470556B2, “Nucleic acids that encode antigen binding proteins that bind PAR-2” (Amgen Inc., priority 2007, dated 2013).
# T1: cell surface expressed human PAR-2 (Homo sapiens, UniProt P55085)
# T1 construct: expressed in transfected cells; host or cells: CHO cells
# T1 sequence (P55085 26-397): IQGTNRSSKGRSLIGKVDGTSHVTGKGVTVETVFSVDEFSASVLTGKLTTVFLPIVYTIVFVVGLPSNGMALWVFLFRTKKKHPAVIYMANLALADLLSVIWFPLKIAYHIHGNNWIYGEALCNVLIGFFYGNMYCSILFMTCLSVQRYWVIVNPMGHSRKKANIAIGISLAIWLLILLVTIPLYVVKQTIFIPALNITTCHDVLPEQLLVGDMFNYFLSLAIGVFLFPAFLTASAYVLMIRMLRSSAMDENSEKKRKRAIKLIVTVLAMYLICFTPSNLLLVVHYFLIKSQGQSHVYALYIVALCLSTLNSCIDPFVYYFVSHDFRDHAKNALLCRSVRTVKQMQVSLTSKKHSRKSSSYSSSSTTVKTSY
# B1: 1B5: anti-PAR-2 monoclonal antibody; heavy SEQ ID NO: 13, light SEQ ID NO: 15 (antibody, listed as Homo sapiens)
# heavy: EVQLVQSGAEVKKSGESLKISCKGSGYSFSNYWIGWVRQMPGKGLEWMGIIYPGDSDTRYSPSFQGQVTISADKSIRTAYLQWSSLKASDTAMYYCARHKGITGTTFYYDYGMDVWGQGTTVTVSS
# light: SYELTQPPSVSVSPGQTARITCSGEALPKQYASWYQQKPGQAPVLVIYRDTERPSGIPERFSGSSSGTTVTLTISGVQAEDEADYYCQSADSNGAYVFGTGTRVTVL
# Assays:
# [1] = target: T2, N-terminal PAR-2/Fc (full length and truncated) (Homo sapiens, UniProt P55085); assay: Western blot, binding to uncleaved versus clipped N-terminal PAR-2/Fc; conditions: upstream binder binds only full-length PAR-2/Fc
# T2 construct: made in house; host or cells: CHO cells (10% FCS for uncleaved; serum-free for clipped)
# Excerpt: N-terminal PAR-2/Fc polypeptide (SEQ ID NO:6) is expressed in suitable mammalian cells such as CHO cells. Expression supernatant from CHO expression cells cultured in serum-free media contain a CHO cell trypsin-like serine protease that cleaves PAR-2/Fc at the activation Arg-Ser bond, generating the “clipped” version of the PAR-2/Fc polypeptide. CHO expression cells cultured in 10% fetal calf serum (which contains normal levels of plasma proteinase inhibitors at concentrations far in excess of the concentration of the CHO cell trypsin-like serine protease) express uncleaved N-terminal PAR-2/Fc in culture supernatants. Both clipped and uncleaved proteins are purified using methods that are suitable for isolation and purification of proteins comprising an Fc regions (for example, using a MabSelect™ resin systems, from GE Healthcare, Piscataway, N.J.)). The resultant purified Fc-constructs are analyzed by amino terminal sequence analysis (Edman degradation), size exclusion chromatrography, absorbance spectral scan, and mass spectroscopy, as needed.
# To analyze binding to uncleaved versus cleaved PAR-2, various amounts of purified uncleaved and clipped N-terminal PAR2-Fc are subjected to SDS-PAGE using 8-16% polyacrylamide gradient gels (Novex gels, Invitrogen Life Technologies) in a Tris-Glycine buffer system. Gel lanes containing See Blue standards (Novex, Invitrogen Life Technologies) for molecular weight identification are also included. Following electrophoresis, proteins are transferred from gels onto nitrocellulose membranes using a Novex XCell II Blot Module (Invitrogen Life Technologies). Membranes are blocked with 1:1, Odyssey blocking buffer, OBB, (LI-COR Biosciences):TBS (Tris Buffer Saline) overnight at 4 C with shaking. Antibodies to be analyzed are diluted in 1:1 OBB:TBS at a desired final concentration for 1 hr at room temperature. Membranes are washed extensively with 0.1% Tween 20 in TBS (3-4 changes of 100 ml over ˜1 hr). Membranes are then exposed to the appropriate secondary antibody-Alexa680 (Molecular Probes, Invitrogen Life Technologies) conjugate (goat anti-rabbit IgG, or goat anti-mouse IgG) diluted 1:5000 in 1:1 (OBB:TBS) for 1 hr at room temperature. Membranes are washed as described above, and if desired, analyzed using a LI-COR Odyssey Infrared Imaging System (LI-COR Biosciences).
# Several PAR-2 antibodies were tested in different assay formats; Table 2 summarizes the results. IC50 values were determined in a FLIPR assay for Ca2+ mobilization described previously; binding to the upstream region of the cleavage site versus the downstream region of the cleavage site was determined using the Western blot assay described previously.
# [2] = target: T1, cell surface expressed human PAR-2; assay: KinExA binding to cell surface expressed PAR-2; conditions: initial analysis, 95% confidence interval of 1.36 to 5.47 nM, N=2 experiments
# Excerpt: This example describes the analysis of the binding properties of PAR-2 antigen-binding proteins to cell surface expressed PAR-2 utilizing a Kinetic Exclusion Assay which measures binding events in solution phase and can be used to calculate KD, Kon and Koff (KinExA®; Sapidyne Instruments, Boise, Id.), substantially as described previously by Xie et. al. J. Imm, Methods 304:1 (2005) and Rathanaswami et. al. Anal. Biochem. 373:52 (2008). Briefly, serial dilutions of cells expressing human PAR-2 (for example, CHO transfectants expressing human PAR-2 at the cell surface, obtainable by transfecting CHO cells with human full length PAR-2 cDNA encoding a polypeptide of SEQ ID NO:2) and control cells (i.e., non-transfected CHO cells) in a modified DMEM medium (phenol red free containing 10% heat inactivated FBS, 0.1 mM MEM non-essential amino acids, 1 mM sodium pyruvate, penicillin-streptomycin-glutamine, and 0.025% (w/w) sodium azide) are incubated with set amounts of antibody for 24 to 36 hours at 4 C with rotation. […] The free mAb is measured by KinExA® using the appropriate capture beads and Cy5-conjugated anti-human secondary antibodies, as described by Rathanaswami et al. Biochem Biophys Research Commun: 1004 (2005). […]
# The KD of certain PAR-2 antibodies was determined in this manner.
# T2 sequence (P55085 with tags, fused parts or gaps limits assumed): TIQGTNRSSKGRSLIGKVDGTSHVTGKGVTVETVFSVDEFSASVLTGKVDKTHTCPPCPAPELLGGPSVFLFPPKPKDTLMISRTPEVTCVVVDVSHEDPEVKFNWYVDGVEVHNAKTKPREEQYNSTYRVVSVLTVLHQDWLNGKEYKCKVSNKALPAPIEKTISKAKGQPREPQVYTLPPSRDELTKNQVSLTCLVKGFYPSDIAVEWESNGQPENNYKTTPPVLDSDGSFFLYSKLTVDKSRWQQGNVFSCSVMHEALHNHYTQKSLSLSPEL
molecule,measurement,setting,value
B1,Binding to Cleavage Site Up stream,[1],xxx
same,Kd,[2],3.39 nM
